The source of these data is paper PMC5855643.

For assay [1], the target named is FcγRIIIa receptor, V158 (high affinity) variant.
The target of assay [2] is FcγRIIIa receptor, F158 (low affinity) variant (UniProt P08637).

In assay [1], “Rituxan^® (rituximab, innovator product) (antibody)” yielded an EC50 of the ADCC reporter bioassay, Daudi target cells, V/V 158 variant effector cells of 12 ng/mL and an EC50 of the ADCC reporter bioassay, Wil2-S target cells, V/V 158 variant effector cells of 15.7 ng/mL. In assay [2], this substance registered an EC50 of the ADCC reporter bioassay, Daudi target cells, F/F 158 variant effector cells of 22 ng/mL and an EC50 of the ADCC reporter bioassay, Wil2-S target cells, F/F 158 variant effector cells of 18 ng/mL.
The corresponding values for “reglycosylated plant-made rituximab (NbRTX^A2G2) (antibody)” are 2.9 ng/mL, 2.7 ng/mL, 7 ng/mL and 4.4 ng/mL.
